Non-standard residues stand in square brackets, D forms with d.
Molecular target: MMP-8 (Homo sapiens, UniProt P22894)
Assay: Enzymatic peptide cleavage by matrix metalloproteinases
Assay type: biochemical
Details: after cleavage from the resin; activated MMP, 1 h at 37° C., pH 7.0; LC-MS
Description: (§1) For that, a 2-3 hour activation of the pre-MMP by p-aminophenyl mercury acetate (APMA 10 mM in 0.1 M NaOH) in a ratio of 10:1 (MMP:APMA v/v) takes place at 37° C. Subsequently, the activated MMP is added to the peptides dissolved in buffer (200 mM NaCl, 50 mM Tris-HCl, 5 mM CaCl2, 1 μM ZnCl2, 0.05% BRIJ® 35, 0.05% NaN3, pH 7.0) in defined concentrations (9 ng/ml, 45 ng/ml, 90 ng/ml, 225 ng/ml, 450 ng/ml, and 900 ng/ml) and incubated for 1 h at 37° C. The reaction is stopped by separation/filtration of the MMP by centrifugation or addition of 10 equivalents of EDTA (250 mM). The cleavage products are analyzed by liquid chromatography with masse spectrometry coupling (LC-MS).
as §1, with “concentrations” for “concentrations (9 ng/ml, 45 ng/ml, 90 ng/ml, 225 ng/ml, 450 ng/ml, and 900 ng/ml)”, “mass” for “masse”

Chain of MMP-8 (P22894 101-467, species assumed): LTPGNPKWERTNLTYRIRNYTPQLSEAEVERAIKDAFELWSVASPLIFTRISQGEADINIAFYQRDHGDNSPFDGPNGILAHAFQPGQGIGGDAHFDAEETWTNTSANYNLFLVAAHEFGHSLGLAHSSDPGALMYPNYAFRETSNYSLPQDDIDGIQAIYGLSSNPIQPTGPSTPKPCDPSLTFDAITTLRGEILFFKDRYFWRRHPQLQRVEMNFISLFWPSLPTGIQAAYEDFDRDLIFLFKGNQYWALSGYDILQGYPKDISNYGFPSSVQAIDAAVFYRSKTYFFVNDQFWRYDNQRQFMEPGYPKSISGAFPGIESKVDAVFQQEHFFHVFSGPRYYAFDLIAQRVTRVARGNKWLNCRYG

- cleavage by matrix metalloproteinases (MMP) such as MMP-8: specifically cleaved
Substance: NH2-G-p-q-G-I-A-G-q-Q—COOH: peptide modified by replacing L by D amino acids (small letters mean D-amino acids) (H-G[dP][dQ]GIAG[dQ]Q-OH; SMILES CC[C@H](C)[C@H](NC(=O)CNC(=O)[C@@H](CCC(N)=O)NC(=O)[C@H]1CCCN1C(=O)CN)C(=O)N[C@@H](C)C(=O)NCC(=O)N[C@H](CCC(N)=O)C(=O)N[C@@H](CCC(N)=O)C(=O)O)
